From paper PMC3479192
Read-outs that look alike come from different tables or passages of the source.

What was measured:
Assay in all cases: dynamic light scattering
[1] = target: full-length BLM protein (human) (UniProt P54132)
[2] = target: full-length BLM protein (human) (UniProt P54132); remark: listed apart in the source
[3] = target: full-length BLM protein (human) (UniProt P54132); remark: listed apart in the source

% mass in the high-order oligomer peak (radius 9.9 nm) [1]: 96.1% | % mass in the high-order oligomer peak (radius 10.1 nm) [1]: 97.2% | % mass in the high-order oligomer peak (radius 12.6 nm) [1]: 62.2% | % mass in the high-order oligomer peak (radius 12.7 nm) [1]: 57.8% | % mass in the high-order oligomer peak (radius 20.3 nm) [1]: 90.5% | % mass in the low-order oligomer peak (radius 8.2 nm) [1]: 37.8% | stoichiometry N [1]: 6 | stoichiometry N [2]: 6 | stoichiometry N [3]: 3
Substance: full-length BLM protein, P54132 1-1417 (enzyme; other documents disagree on this pair)
